From the supplement of paper PMC9732359
± gives the uncertainty stated by the source.

Assay: protein stability index of a GFP-peptide fusion (yeast GPS) (PSI 1-4); higher = more stable; sorted into four equal gates, so the index is relative within each strain
Conditions: doa10∆
Summary of the method: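 Each library plasmid carries Cherry plus GFP with a tiled 17-residue yeast protein peptide fused downstream, and the pooled library was carried in yeast. Mid-log cultures in leucine-free medium were sorted into four equal gates by GFP/Cherry ratio. Reads from Illumina sequencing of PCR-amplified plasmids from each gate were assigned to strains by barcodes. Per peptide, the protein stability index was computed as the summed products of gate read frequency and gate number.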

| Sequence | protein stability index |
| --- | --- |
| ATGHRVLIFFQMTQIMD [SNF2] | 1.84 ± 0.082 |
| ATGNESQDATKVDATPE [YLR335W/NUP2] | 2.87 ± 0.086 |
| ATHLPKDNVEHLVMRAI [RPN9] | 2.88 ± 0.089 |
| ATPQEAQFYLGKRIAYV [RPL33B] | 1.64 ± 0.11 |
| ATSKTSEMLAKYSDILL [CDC53] | 3.11 ± 0.091 |
| ATTQDQVASIIESFVEL [NUT2] | 2.11 ± 0.071 |
| ATYSNEFKCMSVITAQQ [YGL100W/SEH1] | 1.75 ± 0.053 |
| AVALAASDLVLIVIDVV [SNU114] | 2.08 ± 0.052 |
| AVAVGNVEMEEDVLVNQ [RPL1A] | 2.19 ± 0.091 |
| AVDKVISGYKKFSSTSR [RPT1] | 3.46 ± 0.27 |
| AVHVTVRGPKAEEILER [RPL11A] | 2.99 ± 0.11 |
| AVINIRDDGKRELLVEG [RPO31] | 3.56 ± 0.2 |
| AVKNKYNVGKQLSNEII [PRP28] | 2.08 ± 0.066 |
| AVKYGLNHVVSLIENKK [RPL8B] | 2.25 ± 0.079 |
| AVPLQIVSPQSNKPCMG [RPO21] | 1.72 ± 0.059 |
| AVPRDELGRSNYGMIAI [FAS1] | 2.97 ± 0.17 |
| AVRLILPGELAKHAVSE [HTB1] | 3.23 ± 0.095 |
| AYKFEEVSKDLIAVYYS [RPB8] | 2.94 ± 0.071 |
| AYRTDVIQALGGIETIL [PRP8] | 1.44 ± 0.073 |
| CAECSSKLSLSRTDAVR [RPC10] | 2.12 ± 0.049 |
| CAEGIFVVKLDTVDRLI [GAL11] | 2.89 ± 0.12 |
| CAINSKSRGSDLQYLGE [RRP6] | 3.11 ± 0.06 |
| CARFLGNRGFSIGINDV [RPO31] | 2.32 ± 0.21 |
| CDSYLDADKELSFEINV [BRR2] | 2.64 ± 0.08 |
| CEAAVEISKKDFVRKGG [SIR3] | 3.19 ± 0.11 |
| CELLKLTNEDPPGLMYL [SSN2] | 2.85 ± 0.18 |

| Sequence | protein stability index |
| --- | --- |
| CELQVETYGSMEMSEKI [RPN5] | 2.76 ± 0.096 |
| CESCSTVLCTPTGGKAK [RPS27B] | 1.94 ± 0.068 |
| CGAGVFLANHKDRLYCG [RPS31] | 2.19 ± 0.097 |
| CGAWEPAITIEKLKQFS [SIR3] | 1.97 ± 0.087 |
| CGFWQPAWRVWLNFLRG [PRP8] | 2.52 ± 0.072 |
| CHDELKALPMLEQVEFE [MED4] | 3.17 ± 0.14 |
| CILRFLQLPIEDKFLYG [SWI3] | 1.85 ± 0.07 |
| CKDDVQLQKILESLKPI [MTW1] | 3.11 ± 0.11 |
| CKEVGITAVHVKIRATG [RPS14A] | 1.93 ± 0.043 |
| CKLFLADVFTDDDLFET [YCG1] | 3.03 ± 0.08 |
| CKSLISENEDTKDLLSK [CSE2] | 3.23 ± 0.098 |
| CLEDPEKPFNENRFQDT [POP4] | 2.68 ± 0.15 |
| CLFENDLQRLKPLGLDR [ITC1] | 2.92 ± 0.074 |
| CNGSALVEARSLGHQTS [MTR3] | 3.52 ± 0.17 |
| CSFITQDKMFVSNPIRK [FAS1] | 1.37 ± 0.081 |
| CSRIIKIDKPIRTQVNT [RGR1] | 1.94 ± 0.067 |
| CTLTADGAYALSASWDK [ASC1] | 3.08 ± 0.051 |
| CVKAIEALFQSRPDILS [YCG1] | 3.19 ± 0.083 |
| CVQLIKCLVEKSICFEN [SWI1] | 2.49 ± 0.25 |
| CVRVQLIKNGKKVTAFV [RPS23A] | 2.59 ± 0.085 |
| CVVSTDSTNLSDDAAQF [ECM29] | 2.19 ± 0.086 |
| CVYVPNFNASLQLTTNT [SNM1] | 2.06 ± 0.038 |
| CYFRDFEYCRIDGSTSH [ISW2] | 2.51 ± 0.071 |
| CYVGLLTAIPILLEPIY [SNU114] | 1.31 ± 0.045 |
| DACPLDNQPWQLARCGR [HRT1] | 2.76 ± 0.068 |
| DADEKSSNLYETIIEAD [YJR042W/NUP85] | 2.82 ± 0.067 |

| Sequence | protein stability index |
| --- | --- |
| DADGDIDMGEDKENVPV [DPB4] | 3.12 ± 0.17 |
| DALQDVEESSEKKQKTE [DPB4] | 3.2 ± 0.082 |
| DANRNANNIVNIVSDAG [GRR1] | 3.07 ± 0.068 |
| DATFAGHSLGEYAALAS [FAS1] | 2.73 ± 0.14 |
| DCENFFNYVQECPAIPI [YJL039C/NUP192] | 2.49 ± 0.075 |
| DDDAVRREVQIQLQEFL [NSL1] | 3.28 ± 0.093 |
| DDDDNNESSSNTTVISD [DIS3] | 3.01 ± 0.077 |
| DDDKKPDDDKIVPLTEG [RPT1] | 3 ± 0.13 |
| DDDLFETLVLSYFSPIN [YCG1] | 2.23 ± 0.069 |
| DDDNSNVDYYNVAHRIK [SNF2] | 3.31 ± 0.048 |
| DDEEYDYNDVEVNSKKK [BRR2] | 3.3 ± 0.051 |
| DDFDMLFGENDTSTQAY [NUT1] | 3.42 ± 0.08 |
| DDFLSKKRKAGRPRGRP [SNF2] | 3.25 ± 0.3 |
| DDIINNDEPSHKKIKVA [SIR2] | 2.77 ± 0.052 |
| DDLERLKKIRAHRGIRH [RPS18A] | 1.47 ± 0.18 |
| DDRYGYQLYTSNPSGNY [PRE9] | 2.88 ± 0.073 |
| DDSFSLLRIQMLLCVSY [PCI8] | 2.1 ± 0.042 |
| DDVRRAAVIALGFVLLR [RPN2] | 1.86 ± 0.14 |
| DDVVVLTGEAEIEQPVT [FAS1] | 3.47 ± 0.12 |
| DDYYKEIIGGGSKSASK [ISW2] | 2.37 ± 0.12 |
| DEEMLTSCTIPKAVVDH [GAL11] | 2.94 ± 0.085 |
| DEEMTISQKLHDSILHS [RRP43] | 2.7 ± 0.052 |
| DEEYPVKVKVSYQKLLK [PRP8] | 3.03 ± 0.091 |
| DEFYINVDKNLNEIKEH [RPN14] | 2.51 ± 0.072 |
| DEIDAALDFRNVSIVAN [SMC4] | 1.75 ± 0.056 |
| DENELKKSEEKLREKVN [MTW1] | 2.97 ± 0.27 |

| Sequence | protein stability index |
| --- | --- |
| DESTIKRIKPNTEITQK [ECM29] | 2.88 ± 0.051 |
| DEYLGSHTDQPANVLLV [NNF1] | 3.57 ± 0.25 |
| DFDDSTAQEINFKMLVL [IRR1] | 2.59 ± 0.064 |
| DFDLLNKTLTFETETEV [FAS1] | 3.34 ± 0.079 |
| DFGFDLDIEKEAPAGNI [MCD1] | 2.76 ± 0.26 |
| DFIDTATRHVLMRQGVL [RPS3] | 3.24 ± 0.055 |
| DFIKFDQIAVCEISGSI [BRN1] | 2.32 ± 0.14 |
| DFREKALYIAMMTRRVV [RET1] | 1.18 ± 0.077 |
| DFSARTVISGDPNLELD [RPO21] | 3.29 ± 0.22 |
| DFYVVMNRPGARVTRRK [RPL11A] | 3.22 ± 0.17 |
| DGEGKVDSISLHKIFYK [YCG1] | 2.78 ± 0.087 |
| DGGLFTLFVRDQDSAVV [QCR2] | 3.04 ± 0.11 |
| DGHLQFLNDVIPTTKNL [DLS1] | 2.96 ± 0.094 |
| DGSQQNLQQDKTNFQDV [REC8] | 3.23 ± 0.071 |
| DHKRFIVFHNEFSEHTF [DIS3] | 2.55 ± 0.042 |
| DIFSNLSSDDLLGKESF [YCS4] | 2.87 ± 0.05 |
| DILQITKKPLMVKNVKP [SIR4] | 2.79 ± 0.063 |
| DILSQILYGLVDKGAIM [YJL039C/NUP192] | 2.87 ± 0.11 |
| DISATQLPKQLWRNFCR [ITC1] | 2.61 ± 0.054 |
| DIWSISKKRQAEKLVPL [YML031W/NDC1] | 2.64 ± 0.089 |
| DKDNAEKTLGKSLSKAI [RPN7] | 2.27 ± 0.12 |
| DKDSTKEVASLPNKSTI [FAS2] | 3.13 ± 0.089 |
| DKELRKTKFQYKFLDQN [YIL149C/MLP2] | 2.72 ± 0.084 |
